Results as given in paper PMC4757811 (Biochemistry, 2015).
Square brackets hold non-standard residues; d marks the D form. Ends that are not written are not given here. pY = N[C@@H](Cc1ccc(OP(=O)(O)O)cc1)C(=O)O

Molecular target: Brk SH2 domain (UniProt Q13882 78-170)
Test: ITC

Sequence of Brk SH2 domain (Q13882 78-170): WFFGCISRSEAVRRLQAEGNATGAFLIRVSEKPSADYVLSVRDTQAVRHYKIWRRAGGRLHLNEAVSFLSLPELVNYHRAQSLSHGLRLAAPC

Row | Kd | Binder
1 | 15 µM | FTS[pY]ENPTG [Phosphorylated Brk C-terminal tail peptide, wild type (FTSpYENPTG)]
2 | 53 µM | FTS[pY]ENLTG [Phosphorylated Brk C-terminal tail peptide with the P450L substitution (FTSpYENLTG)]
